Measured values: paper PMC7141810, “UBP12 and UBP13 negatively regulate the activity of the ubiquitin-dependent peptidases DA1, DAR1 and DAR2” (eLife, 2020)

T1: GST-UBP13 (Arabidopsis thaliana, UniProt Q84WU2 1-1115)
T1 construct: UBP13, Arabidopsis thaliana, AT3G11910; called full-length; also called full-length GST-UBP13; source: E. coli BL21 (DE3), purified (Glutathione Sepharose 4B beads)
T1 sequence (looked up): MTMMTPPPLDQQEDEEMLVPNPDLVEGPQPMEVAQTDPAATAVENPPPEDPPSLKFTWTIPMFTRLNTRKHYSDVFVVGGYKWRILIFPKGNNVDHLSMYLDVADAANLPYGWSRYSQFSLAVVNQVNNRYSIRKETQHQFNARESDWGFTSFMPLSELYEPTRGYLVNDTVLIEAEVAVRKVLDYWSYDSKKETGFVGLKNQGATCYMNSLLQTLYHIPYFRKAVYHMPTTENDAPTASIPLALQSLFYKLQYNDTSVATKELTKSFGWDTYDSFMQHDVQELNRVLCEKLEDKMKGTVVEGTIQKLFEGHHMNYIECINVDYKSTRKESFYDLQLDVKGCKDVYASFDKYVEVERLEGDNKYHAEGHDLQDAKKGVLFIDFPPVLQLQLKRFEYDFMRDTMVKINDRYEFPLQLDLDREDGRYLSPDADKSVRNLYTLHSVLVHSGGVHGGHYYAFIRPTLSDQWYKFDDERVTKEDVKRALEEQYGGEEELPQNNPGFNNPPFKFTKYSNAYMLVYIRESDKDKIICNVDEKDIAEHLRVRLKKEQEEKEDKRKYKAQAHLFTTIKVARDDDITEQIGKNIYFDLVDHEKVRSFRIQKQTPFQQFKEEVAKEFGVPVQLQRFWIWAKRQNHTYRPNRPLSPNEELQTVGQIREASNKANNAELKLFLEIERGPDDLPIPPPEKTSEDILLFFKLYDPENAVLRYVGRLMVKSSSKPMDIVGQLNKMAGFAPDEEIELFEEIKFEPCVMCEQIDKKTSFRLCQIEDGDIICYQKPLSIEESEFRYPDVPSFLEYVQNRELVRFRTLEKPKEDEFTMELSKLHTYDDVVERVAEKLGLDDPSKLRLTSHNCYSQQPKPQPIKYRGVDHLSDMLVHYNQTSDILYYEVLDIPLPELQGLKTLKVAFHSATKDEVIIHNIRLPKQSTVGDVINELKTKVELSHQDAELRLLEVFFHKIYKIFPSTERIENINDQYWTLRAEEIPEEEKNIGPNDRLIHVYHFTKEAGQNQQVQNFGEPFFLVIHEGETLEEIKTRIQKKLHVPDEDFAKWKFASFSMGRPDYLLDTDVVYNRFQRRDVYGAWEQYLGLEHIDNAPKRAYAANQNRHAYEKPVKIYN

T2: GST-UBP12 (Arabidopsis thaliana, UniProt Q9FPT1 1-1116)
T2 construct: UBP12, Arabidopsis thaliana, AT5G06600; called full-length; also called full-length GST-UBP12; source: E. coli BL21 (DE3), purified (Glutathione Sepharose 4B beads)
T2 sequence (looked up): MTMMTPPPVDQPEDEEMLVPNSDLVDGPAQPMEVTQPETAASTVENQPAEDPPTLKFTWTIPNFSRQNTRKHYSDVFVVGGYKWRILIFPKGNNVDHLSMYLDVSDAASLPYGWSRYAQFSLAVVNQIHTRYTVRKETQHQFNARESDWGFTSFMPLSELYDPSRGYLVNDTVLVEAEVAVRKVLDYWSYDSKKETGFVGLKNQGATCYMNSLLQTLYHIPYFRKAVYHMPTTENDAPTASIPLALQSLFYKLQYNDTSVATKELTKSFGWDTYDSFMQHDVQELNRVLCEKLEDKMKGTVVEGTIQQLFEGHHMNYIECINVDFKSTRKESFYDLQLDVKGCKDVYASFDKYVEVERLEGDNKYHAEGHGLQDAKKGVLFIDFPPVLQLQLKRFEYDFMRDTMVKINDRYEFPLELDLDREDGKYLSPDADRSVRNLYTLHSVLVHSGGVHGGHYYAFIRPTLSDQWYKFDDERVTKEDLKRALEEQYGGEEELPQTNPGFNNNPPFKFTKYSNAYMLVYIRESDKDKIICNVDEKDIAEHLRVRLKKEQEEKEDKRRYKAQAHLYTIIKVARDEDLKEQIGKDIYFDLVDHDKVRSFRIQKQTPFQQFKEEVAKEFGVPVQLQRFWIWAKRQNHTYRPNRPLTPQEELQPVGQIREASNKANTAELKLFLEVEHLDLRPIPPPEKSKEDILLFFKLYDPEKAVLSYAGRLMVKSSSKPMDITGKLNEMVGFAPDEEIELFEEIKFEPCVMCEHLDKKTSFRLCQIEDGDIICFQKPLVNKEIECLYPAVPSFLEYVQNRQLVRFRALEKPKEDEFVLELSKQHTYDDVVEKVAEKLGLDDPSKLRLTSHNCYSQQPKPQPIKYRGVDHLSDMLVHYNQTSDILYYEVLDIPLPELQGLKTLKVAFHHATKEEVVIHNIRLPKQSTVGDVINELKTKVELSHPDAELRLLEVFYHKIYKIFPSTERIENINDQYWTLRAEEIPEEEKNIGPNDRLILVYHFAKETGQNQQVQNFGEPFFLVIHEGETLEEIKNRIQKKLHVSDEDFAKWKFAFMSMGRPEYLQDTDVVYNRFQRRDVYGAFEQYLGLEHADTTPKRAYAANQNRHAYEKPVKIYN

B1: HIS-MBP-DA1 (natural protein, Arabidopsis thaliana, UniProt P0C7Q8 1-532, looked up)
chain: MGWFNKIFKGSNQRLRVGNNKHNHNVYYDNYPTASHDDEPSAADTDADNDEPHHTQEPSTSEDNTSNDQENEDIDRAIALSLLEENQEQTSISGKYSMPVDEDEQLARALQESMVVGNSPRHKSGSTYDNGNAYGAGDLYGNGHMYGGGNVYANGDIYYPRPITFQMDFRICAGCNMEIGHGRFLNCLNSLWHPECFRCYGCSQPISEYEFSTSGNYPFHKACYRERYHPKCDVCSHFIPTNHAGLIEYRAHPFWVQKYCPSHEHDATPRCCSCERMEPRNTRYVELNDGRKLCLECLDSAVMDTMQCQPLYLQIQNFYEGLNMKVEQEVPLLLVERQALNEAREGEKNGHYHMPETRGLCLSEEQTVSTVRKRSKHGTGKWAGNITEPYKLTRQCEVTAILILFGLPRLLTGSILAHEMMHAWMRLKGFRTLSQDVEEGICQVMAHKWLDAELAAGSTNSNAASSSSSSQGLKKGPRSQYERKLGEFFKHQIESDASPVYGDGFRAGRLAVHKYGLRKTLEHIQMTGRFPV
notes: DA1, Arabidopsis thaliana, AT1G19270; source: E. coli BL21 (DE3), purified (NI-NTA agarose beads)
B2: HIS-MBP-DAR1 (natural protein, Arabidopsis thaliana, UniProt Q8W4F0 1-553, looked up)
chain: MGWLTKILKGSSHKFSDGQCNGRYREDRNLEGPRYSAEGSDFDKEEIECAIALSLSEQEHVIPQDDKGKKIIEYKSETEEDDDDDEDEDEEYMRAQLEAAEEEERRVAQAQIEEEEKRRAEAQLEETEKLLAKARLEEEEMRRSKAQLEEDELLAKALQESMNVGSPPRYDPGNILQPYPFLIPSSHRICVGCQAEIGHGRFLSCMGGVWHPECFCCNACDKPIIDYEFSMSGNRPYHKLCYKEQHHPKCDVCHNFIPTNPAGLIEYRAHPFWMQKYCPSHERDGTPRCCSCERMEPKDTKYLILDDGRKLCLECLDSAIMDTHECQPLYLEIREFYEGLHMKVEQQIPMLLVERSALNEAMEGEKHGHHHLPETRGLCLSEEQTVTTVLRRPRIGAGYKLIDMITEPCRLIRRCEVTAILILYGLPRLLTGSILAHEMMHAWLRLNGYPNLRPEVEEGICQVLAHMWLESETYAGSTLVDIASSSSSAVVSASSKKGERSDFEKKLGEFFKHQIESDSSSAYGDGFRQGNQAVLKHGLRRTLDHIRLTGTFP
notes: DAR1, Arabidopsis thaliana, AT4G36860; source: E. coli BL21 (DE3), purified (NI-NTA agarose beads)
B3: HIS-MBP-DAR2 (natural protein, Arabidopsis thaliana, UniProt Q0WSN2 1-528, looked up)
chain: MDSSSSSSSSSPSSSYGVARVSHISNPCIFGEVGSSSSSTYRDKKWKLMKWVSKLFKSGSNGGGSGAHTNHHPPQFQEDENMVFPLPPSSLDDRSRGARDKEELDRSISLSLADNTKRPHGYGWSMDNNRDFPRPFHGGLNPSSFIPPYEPSYQYRRRQRICGGCNSDIGSGNYLGCMGTFFHPECFRCHSCGYAITEHEFSLSGTKPYHKLCFKELTHPKCEVCHHFIPTNDAGLIEYRCHPFWNQKYCPSHEYDKTARCCSCERLESWDVRYYTLEDGRSLCLECMETAITDTGECQPLYHAIRDYYEGMYMKLDQQIPMLLVQREALNDAIVGEKNGYHHMPETRGLCLSEEQTVTSVLRRPRLGAHRLVGMRTQPQRLTRKCEVTAILVLYGLPRLLTGAILAHELMHGWLRLNGFRNLNPEVEEGICQVLSYMWLESEVLSDPSTRNLPSTSSVATSSSSSFSNKKGGKSNVEKKLGEFFKHQIAHDASPAYGGGFRAANAAACKYGLRRTLDHIRLTGTFPL
notes: DAR2, Arabidopsis thaliana, AT2G39830; source: E. coli BL21 (DE3), purified (NI-NTA agarose beads)

The binders below were run against T1, GST-UBP13 (assay: pull-down; in vitro; equal amounts of free GST, GST-UBP12 or GST-UBP13 as baits incubated with HIS-MBP-DA1, -DAR1 or -DAR2; purification with anti-GST beads; Western blot). Conditions: both partners purified.

Binding result, binds:
B1
B2
B3

What follows are binders tested against T2, GST-UBP12 in the same assay as above. Conditions: both partners purified.

Binding result, binds:
B1
B2
B3
